Columns and labels:
[1] = Anti-rhGAA IgG antibody (ADA) titers in IOPD subjects on ERT; assay type: in vivo, human
Experimental: Children with a confirmed diagnosis of IOPD were enrolled in Duke University Medical Centers. IOPD was defined as the presence of hypertrophic cardiomyopathy in the first year of life. […] Clinical data including CRIM status, GAA variants, GAA enzyme activity, age at ERT initiation, and longitudinal anti-rhGAA IgG antibody titers were extracted from medical records ( Supplementary Table S1 ).
ADA titers were determined by Sanofi Genzyme using enzyme-linked immunosorbent assays (ELISA) and confirmed using radioimmunoprecipitation as described previously ([6]). Subjects whose ADA titers repeatedly exceed 51,200 after more than 6-months on rhGAA were classified as high and sustained antibody titers (HSAT) ([5], [11]). Subjects whose ADA titers fell between 12,800 and 51,200 within the first year of ERT were classified as sustained intermediate titers (SIT). Based on ADA titers, subjects were stratified into two groups; 1) High ADA, subjects who developed ADA titers in HSAT or SIT range (≥12,800) and 2) Low ADA, subjects who maintained ADA titers of ≤6,400.

[2] = CRIM-positive IOPD children on ERT; ref [5]; cited from earlier work
From the text: The development of ADA to rhGAA is influenced by the presence or absence of endogenous GAA, defined as cross-reactive immunologic material (CRIM). Individuals who are CRIM-negative have a complete absence of GAA and are at the highest risk of ADA, whereas those who are CRIM-positive may be more immune tolerant to ERT, due to prior exposure to endogenous GAA ([4]). However, one-third of CRIM-positive IOPD children still develop high and sustained or intermediate ADA titers, putting them at risk for clinical decline similar to CRIM-negative individuals ([5]). All CRIM-negative patients develop H ...

## alglucosidase alfa [rhGAA]
[1]; 19 of 48 CRIM-positive IOPD subjects on rhGAA ERT without ITI, high ADA = HSAT or SIT, titers ≥12,800
  subjects who developed high ADA titers: 40%
[1]; 29 of 48 CRIM-positive IOPD subjects on rhGAA ERT without ITI, low ADA = titers ≤6,400
  subjects who developed low ADA titers: 60%
[2]
  share of CRIM-positive IOPD children who develop high and sustained or intermediate ADA titers: one-third
